Assay [1] concerns the target Mouse Fc-mouse GDF15 (Mu IgG1Fc_Fxa_Mu GDF15) (mouse). The experiment in a line: SPR BIAcore T200, 37C; Fc-GDF15 captured, monomeric Fc-Fab as analyte. Background: In SPR one partner is held on a chip, and binding of the other changes the refractive index at the surface.
For another assay, the target named is T1, human BMP9 (human, UniProt Q9UK05 320-429).
T1 construct: Bought
T1 sequence (looked up): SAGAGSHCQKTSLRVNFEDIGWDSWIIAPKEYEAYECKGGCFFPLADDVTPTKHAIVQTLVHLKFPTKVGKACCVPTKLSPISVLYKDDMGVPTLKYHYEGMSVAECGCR
The experiment in a line: BLI, OctetRED 384; family member amine coupled to AR2G biosensor. On the procedure: (§1) To assess the binding specificity of GDF15_001 to human GDF15, GDF15_001 binding to additional TGFB family members was tested. Analysis was carried out on an Octet Red instrument.
(§2) The TGFB family members were diluted to 10 ug/ml in 10 mM Sodium Acetate pH 4.5 and amine coupled onto AR2G biosensors (catalogue #18-5092, ForteBio) according to the manufacturer's instructions. Monomeric GDF15_001 was diluted to 200 nM in kinetics buffer (catalogue #18-5032 ForteBio). Octet assays were conducted at room temperature with an association time of 300 seconds and a dissociation time of 180 seconds. The data was double referenced (Myszka, D., J. Mol. Recognit 1999; 279-284) and analyzed with Octet Data Analysis software version 8.1 (ForteBio).
In general terms: Biolayer interferometry detects binding as a change in optical thickness at a sensor tip.

The next assay has as its target T2, human BMP2 (human, UniProt P12643 283-396).
T2 construct: Bought
Described as above. As to the method:
as §1, §2

The target of the next assay is T3, human TGFß-1 (human, UniProt P01137 279-390).
T3 construct: Bought; also called TGFB-1
The assay is described as above. On the procedure: as §1, §2

Assay [2] concerns the target T4, Mouse Fc-human GDF15 (Mu IgG1Fc_Fxa_Hu GDF15) (human).
T4 construct: Whole entry is the fusion: mouse IgG1 Fc, FXa site and linker, mature human GDF15; described as dimeric; also called Murine dimeric IgG1 Fc-human GDF-15 with FXa cleavage site; control human GDF15
T4 chain: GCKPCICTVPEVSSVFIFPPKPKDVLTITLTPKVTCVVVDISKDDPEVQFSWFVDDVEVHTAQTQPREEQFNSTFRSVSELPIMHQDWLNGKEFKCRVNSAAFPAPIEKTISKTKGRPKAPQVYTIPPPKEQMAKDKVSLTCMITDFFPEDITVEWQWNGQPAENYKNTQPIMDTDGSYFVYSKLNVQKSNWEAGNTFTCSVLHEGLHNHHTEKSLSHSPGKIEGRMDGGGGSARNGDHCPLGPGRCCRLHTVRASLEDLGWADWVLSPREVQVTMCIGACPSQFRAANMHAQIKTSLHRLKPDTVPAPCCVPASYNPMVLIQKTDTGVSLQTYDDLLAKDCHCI
The experiment in a line: SPR BIAcore T200, 37C; Fc-GDF15 captured, monomeric Fc-Fab as analyte. The source says:
(§3) To understand the KD value, without the avidity effect, of GDF15_001 binding to GDF15, monomeric Fc-Fab was produced and tested in the same assay used in Example 2. […] Mu IgG1Fc_Fxa_Hu GDF15, Mu IgG1Fc_Fxa_Mu GDF15 and Mu IgG1Fc_Fxa_Cyno GDF15 were captured onto three different flow cells of a CM4 sensorchip (catalogue number BR100534, GE Healthcare) surface using the Mouse Antibody Capture Kit (BR100838, GE Healthcare) according to the manufacturer's protocol. The running and sample buffer was 10 mM HEPES pH 7.4, 0.15M NaCl, 3 mM EDTA, 0.05% P-20 (HBS-EP+). The final capture levels of Mu IgG1Fc_Fxa_Hu GDF15, Mu IgG1Fc_Fxa_Mu GDF15 and Mu IgG1Fc_Fxa_Cyno GDF15 were 19 resonance units (RU), 22 RU and 19 RU respectively. Flow cell 1 was used as a reference flow cell. […] The dissociation was monitored for 1200 seconds and the surface was regenerated with 10 mM Glycine pH 1.7. Binding affinities and rate constants were determined by fitting the resulting sensorgram data to a 1:1 Langmuir model in BIAcore T200 Evaluation software version 2.0 (GE Healthcare).

Assay [3] has as its target T5, Mouse Fc-cynomolgus monkey GDF15 (Mu IgG1Fc_Fxa_Cyno GDF15) (cynomolgus monkey).
T5 construct: Whole entry is the fusion: mouse IgG1 Fc, FXa site and linker, cynomolgus GDF15; described as dimeric; also called Murine dimeric IgG1 Fc-cyno GDF-15 with FXa cleavage site
T5 chain: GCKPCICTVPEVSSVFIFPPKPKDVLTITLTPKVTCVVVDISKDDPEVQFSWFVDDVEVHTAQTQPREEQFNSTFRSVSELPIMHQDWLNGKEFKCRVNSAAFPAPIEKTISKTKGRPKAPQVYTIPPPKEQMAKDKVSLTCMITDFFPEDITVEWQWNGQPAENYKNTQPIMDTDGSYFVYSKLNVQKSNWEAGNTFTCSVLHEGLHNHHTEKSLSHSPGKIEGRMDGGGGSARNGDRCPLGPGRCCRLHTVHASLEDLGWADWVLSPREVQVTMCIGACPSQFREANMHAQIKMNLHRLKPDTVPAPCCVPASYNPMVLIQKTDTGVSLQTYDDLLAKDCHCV
The description is as above.
Excerpt: as §3

Assay [4] has as its target T4, Mouse Fc-human GDF15 (Mu IgG1Fc_Fxa_Hu …). The experiment in a line: SPR BIAcore T200, 37C; Fc-GDF15 captured, monomeric Fc-Fab as analyte; average of runs.
Excerpt: as §3

Assay [5] has as its target T5, Mouse Fc-cynomolgus monkey GDF15 (Mu …). The description is as above.
Excerpt: as §3

The target in assay [6] is T4, Mouse Fc-human GDF15 (Mu IgG1Fc_Fxa_Hu …). The experiment in a line: SPR BIAcore T200, 37C; Fc-GDF15 captured, monomeric Fc-Fab as analyte; human GDF15 ligand (Mu IgG1Fc_Fxa_Hu GDF15), second run.
Excerpt: as §3

Values joined by “and” are separate entries in the source; they are usually repeats but may differ in a detail not shown here. Identical values can stand only once.

Usually koff stands for the first-order rate constant of dissociation. One may read the kon as the second-order rate constant of association. The Kd is the constant that tells how readily two partners part at equilibrium.

T3 sequence (P01137 279-390 limits assumed): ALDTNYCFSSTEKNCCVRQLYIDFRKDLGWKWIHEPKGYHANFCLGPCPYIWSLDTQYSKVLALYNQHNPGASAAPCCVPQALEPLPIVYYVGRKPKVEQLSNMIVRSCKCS
T2 sequence (P12643 283-396 limits assumed): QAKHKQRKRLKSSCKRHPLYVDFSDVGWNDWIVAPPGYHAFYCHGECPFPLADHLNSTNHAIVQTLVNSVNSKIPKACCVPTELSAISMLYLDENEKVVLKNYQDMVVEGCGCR

B1: monomeric GDF15_001 (CH23LS-GBT-GDF15_001) (Fab, V domains shown)
VH: QVQLVQSGAEVKKPGSSVKVSCKASGYTFSSYNIDWVRQAPGQGLEWMGGINPIFGTAFYNQKFQGRVTITADESTSTAYMELSSLRSEDTAVYYCAREAITTVGAMDHWGQGTLVTVSS
VL: EIVLTQSPATLSLSPGERATLSCRTSQSVHNYLAWYQQKPGQAPRLLIYDASTRADGIPARFSGSGSGTDFTLTISSLEPEDFAVYYCQQFWSWPWTFGQGTKVEIK
notes: Monovalent 'monomeric Fc-Fab' of GDF15_001 made to measure KD without avidity; also called CH23LS-GDF15_001; monomeric Fc-Fab
B1: the T½ min in [1] is 3.39 min and 3.73 min; in assay [2], 8.54 h and 4.2 h; in [3] it was 2.57 h and 2.05 h. Also, the koff in assay [1] was 0.00341 s⁻¹ and 0.0031 s⁻¹; in assay [2], 2.25e-05 s⁻¹ and 4.58e-05 s⁻¹; in [3] it was 7.48e-05 s⁻¹ and 9.39e-05 s⁻¹; in assay [4], 3.42e-05 s⁻¹; in [5], 8.43e-05 s⁻¹. Besides, the kon in assay [1] was 1.62e+06 M⁻¹ s⁻¹ and 1.7e+06 M⁻¹ s⁻¹; in assay [2], 1.52e+06 M⁻¹ s⁻¹ and 1.66e+06 M⁻¹ s⁻¹; in [3] it was 1.63e+06 M⁻¹ s⁻¹ and 1.2e+06 M⁻¹ s⁻¹; in [4], 1.59e+06 M⁻¹ s⁻¹; in [5], 1.42e+06 M⁻¹ s⁻¹. Moreover, the binding result with human BMP9, in the assay with human BMP2 and with human TGFß-1 was “no binding (tested: 200 nM)” each time. Moreover, the Kd in assay [3] is 0.0458 nM and 0.0782 nM; in assay [4] it was 0.0213 nM; in [5], 0.062 nM; in [6], 0.0276 nM.

The record behind these values is patent publication US20260159579A1 (Pfizer, published 2026).
